Data published in the nanobody polyreactivity screen of Harvey et al. (2022).

assay: yeast display, Sf9 membrane polyspecificity reagent, FACS + sequencing; frameworks hold sequencing errors
Summary of the method: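 Using colony PCR, genes from sorted yeast display clones were amplified, then sequenced on MiSeq at 2 × 250 and filtered by CDR length. The clones had been stained with 10% biotinylated, detergent-solubilized Sf9 membrane reagent for 1 hour at 4 °C and sorted by FACS into low and high (top ~1%) gates on anti-HA and streptavidin fluorescence. Polyreactivity labels come from the gate of origin.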

Sequence	polyreactivity (PSR sort gate)
QVQLVESGGGLVQAGGSLRLSCAASGRIFRYNAMGWYRQAPGKERELVAAITNGGSTNYADSVKGRFTISRDNAKNTVYLQMNSLKPEDTAVYYCAAEGNGYLVSTWWVRYEYWGQGTQVTVSS	low polyreactivity
QVQLVESGGGLVQAGGSLRLSCAASGRIFRYYAMGWFRQAPGKERELVASISRRGGSTNYADSVKGRFTISRDNAKNTVDLQMNSLKPEDTAVYYCNAENSSPRGLYNYWGQGTQVTVSS	high polyreactivity
QVQLVESGGGLVQAGGSLRLSCAASGRIFRYYAMGWSRQAPGKERELVADISRRGGSTYYADSVKGRFTISRDNAKNTVYLQMNSLKPEDTAVYYCNARWYRTGSTYHEDYWGQGTQVTLSS	high polyreactivity
QVQLVESGGGLVQAGGSLRLSCAASGRIFRYYAMGWYRQAPGKERELVAAISSGGSTYYADSVKGRFTISRDNAKNTVYLQMNSLKQEDTAVYYCAADRRYSYNWGHGTQVTVSS	high polyreactivity
QVQLVESGGGLVQAGGSLRLSCAASGRIFRYYAMGWYRQAPGKERELVAAISSSGGSTYYADSVKGRFTISRDNAKNTVDLQMNSLKPEDTAVYYCAAKYSRRSSVSYYYWGQGTQVTVSS	high polyreactivity
QVQLVESGGGLVQAGGSLRLSCAASGRIFRYYAMGWYRQAPGKERELVAAISYSTGGTYYADSVKGRFTISRDNAKNTVYLQMNSLIPEDTAVYYCAARGPLDRYGYWGQGTQVTVSS	high polyreactivity
QVQLVESGGGLVQAGGSLRLSCAASGRIFRYYAMGWYRQAPGKERELVAAITRGGSTNYADSVKGRFTISRDNAKNTVYLLMNSLKPEVTAVDYCNAPYWKSRFRAYYHWGQGTQVTVSS	high polyreactivity
QVQLVESGGGLVQAGGSLRLSCAASGRIFRYYAMGWYRQAPGKERELVAAITRGGSTNYADSVKGRFTISRDNAKNTVYLQMNSLKPEDSAVFYCATRESCYPRWMDYWGQGTQVTVSS	high polyreactivity
QVQLVESGGGLVQAGGSLRLSCAASGRIFRYYAMGWYRQAPGKERELVARITSGGSTYYADSVKGRFTLSRDNAKNTVYLQMNSLKPEDTAVYYCAAETTRWHPWYDYWGQGTQVTVSS	high polyreactivity
QVQLVESGGGLVQAGGSLRLSCAASGRIFRYYAMGWYRQAPGKERELVASIARRGGSTNYADSVKGRFTISRDNAKNTVYVQMNSLKPEDTAVYYINAENWSPRGLYNYWGQGTQVTLSS	high polyreactivity
QVQLVESGGGLVQAGGSLRLSCAASGRIFRYYAMGWYRQAPGKERELVATISRSGGSTFYADSVKGRFTISRDNGKNPVYLQMNSLKPEDSAVYYCNARYQTGCYGYWGQGTQVTVSS	high polyreactivity
QVQLVESGGGLVQAGGSLRLSCAASGRIFRYYAMGWYRQAPGKESELVAAINSGGSTKYADSVKGRFTISRDNAKNTVYLQMNSLKPEDTAVYYCNKDHAFSRYWYGGFDYWGQGTQVTVSS	high polyreactivity
QVQLVESGGGLVQAGGSLRLSCAASGRIFRYYAMGWYRQAPGKESELVAAITASGGSTYYADSVKGRFTISRDNAKNTVYLQMNSLKPEDTAVYYCATEYVVYRSWVPKYGYWGQGTQVTVSS	high polyreactivity
QVQLVESGGGLVQAGGSLRLSCAASGRIFRYYAMGWYRQAPPKERELVAAIRWSGGRTYYADSVKGRFTISRDNAKNTVYLQMNSLKPEDTAVYYCAADSPYKMDYWGQGTQVTVSS	high polyreactivity
QVQLVESGGGLVQAGGSLRLSCAASGRIFRYYAMGWYRQATGKERELVAAISRSGGSTYYADSVKGRFTISRDNAKNTVYLQMNSLKPEDTAVYYCNAQWRSTDPYPPGYDYWGQGTQVTVSS	high polyreactivity
QVQLVESGGGLVQAGGSLRLSCAASGRIFRYYPMGWYRQATGKERELVAAITASGGSTYYADSVKGRFTISRDNAKNTVYLQMNSLKPEDTAVYYCAARVAQVAYPDGYWGQGTQVTVSS	high polyreactivity
QVQLVESGGGLVQAGGSLRLSCAASGRIFRYYTMGWYRQAPGKERELVAAISGRGGRTYYADSVKGRFTISRDNAKNTVYLQMNSLKPEDTAVYYCNAYDHPIYRLDYWGQGTQVTVSS	high polyreactivity
QVQLVESGGGLVQAGGSLRLSCAASGRIFSANAMGWYRQAPRKERELVAGIDSGGSTNYADSVKGRFTISRDNSKNTVYLQMNSLKPEDTAVYYCNAEDHKYEYDSWGQGTQVTVSS	low polyreactivity
QVQLVESGGGLVQAGGSLRLSCAASGRIFSAYAIGCYRQSPWKERELVSAISRSGGRTYYADSVKGSFTISRDNAKNTVYLQMNSLKPEDTAVYYCAAARFAIVRGDYCGQGTQVTVSS	high polyreactivity
QVQLVESGGGLVQAGGSLRLSCAASGRIFSAYAMGLYRQAPGKERELVAAITSVGSTKYADSVKGRFTISRDNAKNTVYLQMNSLIPEDTAVYYCAAEYTRSFYIYYRFGYWGQGTQVTVSS	high polyreactivity
QVQLVESGGGLVQAGGSLRLSCAASGRIFSAYAMGWYRQAPGKERELVAAISRSRGRTYYADSVKGRVTISRDNAKNTVYLQMNSLKPEDTAVYYCAAARFAIVRGDYWGQGTQVTVSS	high polyreactivity

Sequence	polyreactivity (PSR sort gate)
QVQLVESGGGLVQAGGSLRLSCAASGRIFSAYAMGWYRQAPGKERELVAANSRSGGRTYYADSVKGRFTISRDNAKNTVYLQMNSLKPDDTAVYYCAVLWHGRRPLYKLRTGPEYDYWGQGTQVTVSS	high polyreactivity
QVQLVESGGGLVQAGGSLRLSCAASGRIFSDYAMGWYRQAPGKERELVATITSGDSTNYEDSVKGRFTISRDNAKNTVYLQMNSLKPVDTAVYYCIADRYADYDYWGQGTQVTVSS	low polyreactivity
QVQLVESGGGLVQAGGSLRLSCAASGRIFSFNAMGRYRQAPGKERELVAAITWRGGSTYYADSVKGRFTISRDNAKNTVYLQMNSLKPEDTAVYYCNAYPFWRDYDYWGQGTQVTVSS	high polyreactivity
QVQLVESGGGLVQAGGSLRLSCAASGRIFSFNAMGWYRQAPGKERELVATIRTDGTTNYADSVKGRFTISRDNAKNTVYLQMNSLKPEDTAVYYCAANRKRFAFGYWGQGTQVTVSS	high polyreactivity
QVQLVESGGGLVQAGGSLRLSCAASGRIFSFYTMGWYRQAPGKERELVAAISGSGGSTYYADSVKGRFTISRDNANNTFYLQMNSLKPEDTAVYYCAAGYGFRYYLYDYWGQGTQVTVSS	high polyreactivity
QVQLVESGGGLVQAGGSLRLSCAASGRIFSFYVMGWYRQAPGKERELVAAISLSGGSTYYADSVKGRFTISRDNAMNTVYLQMNSLKPEDTAVYYCNAVLYARQRDRWARYDYWGQGTQVTVSS	high polyreactivity
QVQLVESGGGLVQAGGSLRLSCAASGRIFSGYAMGWYRQAPGKERELVAAISGGGSTNYADSVKGRFTISRDNAKNTVYLQMNSLKPEDTAVYYCATQYGHYPYWLYKYDYWGQGTQVTVSS	low polyreactivity
QVQLVESGGGLVQAGGSLRLSCAASGRIFSGYAMGWYRQAPGKERELVAAITSRSGSTYYADSVKGRFTISRDNAKNTVYLQMNSLKPEDTAVYYCAAEYVRFYWYTSAYWGQGTQVTVSS	low polyreactivity
QVQLVESGGGLVQAGGSLRLSCAASGRIFSGYVMGWYRQPPGKERELVAAISRSGGSTYYADSVKGRFTISRDNAKNTVYLQMNSLKPEDTAVYYCNADWYKRHYDYWGQGTQVTVSS	high polyreactivity
QVQLVESGGGLVQAGGSLRLSCAASGRIFSHNVMGWYRQAPGKERELVAAISWSSGSTYYADSVKGRFTISRDNAKNTVYLQMNSLKPEDTAVYYCNAATRPTGDYWGQGTQVTVSS	low polyreactivity
QVQLVESGGGLVQAGGSLRLSCAASGRIFSHYAMGWYRQAPGKERELVAAINRSGGSTYYADSVKGRFTISRDNAKNTVYLQMNSLKPEDTAVYYCAADVKYGYDWGQGTQVTVSS	high polyreactivity
QVQLVESGGGLVQAGGSLRLSCAASGRIFSINAMGWYRQAPGKERELVASISSGGSTKYADSVKGRFTISRDNAKNTVYLQMNSLKPEDTAVYYCAARGRVYRYGYWGQGTQVTVSS	high polyreactivity
QVQLVESGGGLVQAGGSLRLSCAASGRIFSIYAMGSYRQAPGKERELVAAISFRGTSTYADSVKGRFTISRDNAKNTVYLQMNSLKPEDTAVYYCAVTGFDFLWPSLGGELDYWGQGTQVTVSS	low polyreactivity
QVQLVESGGGLVQAGGSLRLSCAASGRIFSIYGMGWSRQAPGKEREFVASITYSGGSTYYADSVKGRFTISRDNAKNTVYLQMNSLQPEDTAVYYCAKYVFSAYDYWGQGTLVTVSS	low polyreactivity
QVQLVESGGGLVQAGGSLRLSCAASGRIFSKKAMGWYRQAPGKERELVARIRWTGGITYYADSVKGRFTISRDNAKNTVYLQMNSLKPEDTAVYYCAADYLWGTWTTYFRPLLYDYWGQGTQVTVSS	low polyreactivity
QVQLVESGGGLVQAGGSLRLSCAASGRIFSKNAMGCYRQQPGKERELVAAISRSGGGTYYADSVKGRFTISRDTAKNTVYLQMNSLKPEDTAVYYCATRYGSWGQGTQVTVSS	high polyreactivity
QVQLVESGGGLVQAGGSLRLSCAASGRIFSKNVRGWYRQAPGKERELVADISNTGRTYYADSVKGRFKISRDNAKNTVYLQMNSLKPEDTAVYYCAADIAYRYFAVEFSSYTGDYWGQGTQVTVSS	low polyreactivity
QVQLVESGGGLVQAGGSLRLSCAASGRIFSKYAMGWYRQAPGKERELVASIRWRGDRTYYADSVKGRFTISRDNAKNTVDLQMNSLIPEDTAVYYCAADEPGYGVGYWTYPVVPYDYWGQGTQVTVSS	low polyreactivity
QVQLVESGGGLVQAGGSLRLSCAASGRIFSLNAMGWYRQAPGNERELVAGNRKRGGSTYYADSVKGRFTISRDNAKNTLYLQMNSLKPEDTAVYYCAAQPALTYRFYYWGQGTQVTVSS	high polyreactivity
QVQLVESGGGLVQAGGSLRLSCAASGRIFSLYAMGWYRQAPGKERELVAAISRGGSTYYADSVKGRFTISRDNAKNTVYLQMNSLKPEDTAVYYCAAAPDYRAEYDYWGQGTQVTVSS	low polyreactivity
